In the DeepSol protein solubility set:

Assay: soluble on expression in E. coli; label from the status in PepcDB or PDB records

Row | Sequence | soluble on expression in E. coli
1 | MTDSRTHLRLQIRQRRQSLSAFEQQTASQQLIHTFASLPEVTAAQRIALYLANDGELNTQPLIEWLWQQGKQVYLPVLHPFAKGHLLFLHYHTHTPMNKNRYGIAEPKLDQRLICPVRELDIIGTPLVAFDQSGQRLGMGGGYYDRTLAPWFKTQQGAMPIGLAHDCQQVEQLPTASWDIPLRKIVTPSKVWQWLEHHHHHH | not soluble
2 | MAHHHHHHMLRQSLLSLAKVYGAVPPLGAAQGHRLLHGKREREGSLFAVANDVKRDERLLRQQLNALLEEERMPMQARLQRSEAVSSHEAVPQTPLVDLPGVERRRDLPADPITRLFFQHKGDHALYYGTYDKPSVQDDDRVQIEKRVPRRREENLYTPIYDFCHRIREATEQRKRFVVVPSTIETRGCARVMHDHGLVAGFRDFHNDRAFAVELKYFQGDSTINVIEPCSYDGRTEFEWSPKMMRRLLNTHGIHNRLVVYICRTADNRIIDHIHAVKENIGGRGLMMVH | not soluble
3 | MNKAPHETRVVVGMSGGVDSSVAALLLKEQGYDVIGIFMKNWDDTDENGVCTATEDYEDVVRVCNQIGIPYYAVNFEKQYWDKVFTYFLNEYKAGRTPNPDVMCNKEIKFKAFLEHAMSIGADYIATGHYARVEFRDGEYKMLRGADPNKDQTYFLNQLGQAQLSKVMFPIGHLQKADVRRIAKEAGLATAGKKDSTGICFIGERDFKEFLSHYLPAQPGVMKTLDGEVKGRHDGVMYYTIGQRHGLGIGGSGEPWFVVGKDVRENVLYVAQGFENEYLYSTSLKAVDVNWVSDRKPEAPFRCTAKFRYRQPDVGVTVHPLADGGVEVVFDAPARAVTPGQAVVFYNGEECLGGGTIDEVFRNGEKLWYVG | not soluble
4 | MAARHHAFILAGTGSGCGKTTVTLGLLRLLQKRALRVQPFKVGPDYLDTGWHTAICGVASRNLDSFMLPPPVLNALFCEQMRQADIAVIEGVMGLYDGYGVDPNYCSTAAMAKQLGCPVILLVDGKAVSTSLAATVMGFQHFDPTLNLAGVIVNRVTSDAHYQLLKNAIEHYCSLPVLGYVPPCDGVALPERHLGLITARESLVNQQSWHDFAATLEQTVDVDALLSLSVLSALPAGMWPERPDNTAGAGLTLALADDEAFNFYYPDNIDLLERAGVNIVRFSPLHDRALPDCQMIWLGGGYPELYAADLAANTVMLKHLRAAHQRGVAIYAECGGLMYLGSTLEDSGGEIHQMANIIPGHSKMGKRLTRFGYCEAQAMQPTLLAAPGEIVRGHEFHYSDFIPETPAVMACRKVRDGRVLQEWTGGWQTGNTFASYLHVHFAQRPEMLQHWLAAARRVL | not soluble
5 | SVRDDLQVVLDTSPPDDTGFSTLERTMLRNILGLHDRRIADVMVHRADIVAIKQDIQLGELLSLFQDAAHSRLVVYNETLDDPVGIVHIRDLVAFMTAKAKVPPATVAKRKKALPAGLDLRAIDLKMPLTETGIIRKLLYVPPSMRAIDLLAQMQAARIHLALVVDEYGGTDGLVSIEDIVEQIVGEID | soluble
6 | MEQAMLKTLALLVLGMHYWCATGFPVYDYDPSSLQEALSASVAKVNSQSLSPYLFRATRSSLKRVNVLDEDTLVMNLEFSVQETTCLRDSGDPSTCAFQRGYSVPTAACRSTVQMSKGQVKDVWAHCRWASSSESNSSEEMMFGDMARSHRRRNDYLLGFLSDESRSEQFRDRSLEIMRRGQPPAHRRFLNLHRRARVNSGFE | soluble
7 | MDVKNAFVETAMGVLSEFGFSSVFAEKNETGGLVEAEYVNVVMGVNGAISGNLIMTAKKESALAIASAMLGGMEFTEVDDMVKSAIGELLNIIAGNAFSKVDVKAAVYISTPTLLIGEGISVLLQSPGTNKLVFDMDGQSMDVFLDIE | not soluble
8 | MNSNGPLMEHGKRRVAYYYDSNIGNYYYGQGHVMKPHRIRMTHHLVLNYGLYRNLEIFRPFPASFEDMTRFHSDEYMTFLKSANPDNLKSFNKQMLKFNVGEDCPLFDGLYEFCQLSSGGSLAAATKLNKQKVDIAINWMGGLHHAKKSEASGFCYTNDIVLGILELLKYHKRVLYVDIDVHHGDGVEEAFYTTDRVMTVSFHKYGDFFPGTGDLKDIGAGKGKLYSVNVPLRDGITDVSYQSIFKPIMTKVMERFDPCAVVLQCGADSLNGDRLGPFNLTLKGHGECARFFRSYNVPLMMVGGGGYTPRNVARCWTYETSIAVDKEVPNELPYNDYFEYFGPNYRLHIESSNAANENSSDMLAKLQTDVIANLEQLTFVPSVQMRPIPEDALSALNDDSLIADQANPDKRLPPQITDGMIQDDGDFYDGEREGDDRRNESDAKRAAQFESEGGEKRQKTE | not soluble
9 | MSLTDNQDPLQLVQEFRSIAGEAALVCAEETEDQRDRTQFVNFELEAKLWYLVELLVSFRTSDAPMDDIELHDYNSNAVFKKAQLQEDPELYVVWLIIAWIQENLTVSPRPAELPTTKWSNTLLAGGLKSSDLDCPLREEGVQIHPKDNQDDHCFYKYMYELILAGKYEEVRRECEYSDNLTLGMIMCGLEDYVDPRIDLELAGDYEGHQGIKKRALWRRAVYALSRNPNLDKYEAAIYAFLSGTIPQDIDEQQLDWERMLLVYLNQIWNIKIENYLLEKERINKEELIEQMPSQPLSLSAVLNIVASKHVEESEHPIRVLMGAVILNTISPAVKSFIDMLLDAVKGVDQENDLLSEPYILRILTHLVIFLDKACPGVIEEGDKSKLVTTYVSLLNLYEQYDLVPVYISCLDEQDIMEAYSFFLSNLVGDSSRERQLELCYFFQLPTANILKRTAQRIFNDTEPHYNLADTVTMNSEVTDIDLHLISAVDWLMKGRLHVDAVESIIALCRRFLANGKVNSLSTFFEQHNMDDLIKNYELDQLSAKEEYPEDRFVQEIGQYTKLITGFRQYKNWENSSHTVSSSKNTSALLQQFQAFASTLRGLVTEFLVELTEHTDMPSEDRDMLYNIRSLYTPYLLIELHNSYTSTAEKLGVPSFLQEAVNLSTMVANETDKIYLLFQNSGKLKEYLHLVAKAVALIGHEGHHHHHH | not soluble
10 | MGSDKIHHHHHHMAQIISINDNQRLQLEPLEVPSRLLLGPGPSNAHPSVLQAMNVSPVGHLDPAFLALMDEIQSLLRYVWQTENPLTIAVSGTGTAAMEATIANAVEPGDVVLIGVAGYFGNRLVDMAGRYGADVRTISKPWGEVFSLEELRTALETHRPAILALVHAETSTGARQPLEGVGELCREFGTLLLVDTVTSLGGVPIFLDAWGVDLAYSCSQKGLGCSPGASPFTMSSRAIEKLQRRRTKVANWYLDMNLLGKYWGSERVYHHTAPINLYYALREALRLIAQEGLANCWQRHQKNVEYLWERLEDIGLSLHVEKEYRLPTLTTVCIPDGVDGKAVARRLLNEHNIEVGGGLGELAGKVWRVGLMGFNSRKESVDQLIPALEQVLR | soluble
11 | MSEEQKTISISELESMNIKQLYEIAKSLGIPRYTSMRKRDLIFAILKAQTESTGYFFGEGVLEIHPEGFGFLRRIEDNLLPSNDDIYISPSQIRKFNLNTGDIISGVIRKPKEGEKYFAMIKIEAINYRPVEAVNDRVNFDNLTPDYPRERFILETDPKIYSTRLIDLFAPIGKGQRGMIVAPPKAGKTTILKEIANGIAENHPDTIRIILLIDERPEEVTDIRESTNAIVIAAPFDMPPDKQVKVAELTLEMAKRLVEFNYDVVILLDSLTRLARVYNIVVPPSGKLLTGGVDPAALYKPKRFFGAARNTREGGSLTIIATALVETGSKMDEVIFEEFKGTGNMELVLSRQLANKRIFPAINLLLSGTRREELLLDEETLKKVWLLRRMLSAMTEEEGLTLILNKLSETSSNEEFLKLIDKEKARY | soluble
12 | MKQWIAALLLMLIPGVQAAKPQKVTLMVDDVPVAQVLQALAEQEKLNLVVSPDVSGTVSLHLTDVPWKQALQTVVKSAGLITRQEGNILSVHSIAWQNDNIARQEAEQARAQANLPLENRSITLQYADAGELAKAGEKLLSAKGSMTVDKRTNRLLLRDNKTALSALEQWVAQMDLPVGQVELSAHIVTINEKSLRELGVKWTLADAQHAGGVGQVTTLGSDLSVATATTHVGFNIGRINGRLLDLELSALEQKQQLDIIASPRLLASHLQPASIKQESEIPYQVSSGESGATSVEFKEAVLGMEVTPTVLQKGRIRLKLHISQNVPGQVLQQADGEVLAIDKQEIETQVEVKSGETLALGGIFTRKNKSGQDSVPLLGDIPWFGQLFRHDGKEDERRELVVFITPRLVSSELEHHHHHH | not soluble
13 | MSHVSTLRRALLGALLLAPAAALANTPIPIDVWRTPTCGCCEDWLQHLRSNGFEVRAHMVEDTAPVRSQAGMPARYGSCHTARVQGYTVEGHVPAADIRRLLRDKPRAVGLTAPGMPIGSPGMDGPAYGGRRDAYDVLLVQPDGSARVFQAYR | not soluble
